Experimental data from the nanobody polyreactivity screen of Harvey et al. (2022).

Test: yeast display, Sf9 membrane polyspecificity reagent, FACS + sequencing; frameworks hold sequencing errors
How it was run: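 Synthetic nanobody libraries on Saccharomyces cerevisiae BJ5465 were galactose-induced for 36–48 hours, stained 1 hour at 4 °C with 10% biotinylated, detergent-solubilized Sf9 membrane reagent and enriched on streptavidin microbeads. FACS then separated cells into low and high (top ~1%) gates by anti-HA (expression) and streptavidin (reagent binding) fluorescence. Genes were colony-PCR amplified, MiSeq 2 × 250 sequenced and CDR-length filtered. A clone's polyreactivity label is that of its gate of origin.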

| Sequence | polyreactivity (PSR sort gate) |
| --- | --- |
| QVQLVESGRGLVQAGGSLRISCAASGRTFRHNVMGWYRQAAGQERELVAAITWGDASTYYADSVKGRFTISRDNAKNTVYLQMNSLKPEDTAVYYCAASDYRRSYDYWGQGTQVTVSW | low polyreactivity |
| QVQLVESGRGLVQAGGSLRISCAASGRTFYSYAMGWYRQAPGKERELVAAITSSGGRTYYADSVKGRFTISRDNAKNTVYLQMNSLKPEDTAVYYCNKLRRSPNSQYYYWGQGTQVTVSS | high polyreactivity |
| QVQLVESGRGLVQAGGSLRISCAASGSTFIFNTMGWYRQAPGKEMELVATITGDGRTNYADSVKGRFTISRDNAKNTVYLQMNSLKPEDTAVYYCDADGYDQYPLWSPPGDYWGQGTQVTVSS | low polyreactivity |
| QVQLVESGRGLVQAGGSLRLRCAASGSIFKSNVMGWYRPAPGKERELVAVITRSGGSTYYADSEKGRFTISRDNAKNTVYLQMNSLKPEDTAVYYCNRAAGYWAGYYHWGQGTQVTVSS | high polyreactivity |
| QVQLVESGRGLVQAGGSLRLRCAASGSTFNENVMGWYRQAPGKERELVAAIRTGSGSTYYADSVKGRFTISRDNAKNTVYLQMNSLKPEDTAVYYCYKDRGYSSLFSLFPGDYWGQGTQVTVSS | low polyreactivity |
| QVQLVESGRGLVQAGGSLRLSCAASGFTFAFYAMGWYRQAPGKERELVAAISRRGGSTTYADSVKGRFTISRDNAKNTVYLQMNSLIPEDSAVYYCNAVSTRNPGPDYYYWGQGTQVTVSS | high polyreactivity |
| QVQLVESGRGLVQAGGSLRLSCAASGFTFGVNAMGWYRQAPGKERELVAAITRSGGTTYYADSVKGRFTISRDNAKNTVYLQMNSLKPEDTAVYYCNRRARSYADDYWGQGTQVTVSS | high polyreactivity |
| QVQLVESGRGLVQAGGSLRLSCAASGFTFPDNTMGRYRQAPGKERVLVAGIRRRGGSTYYADSVKGRFTISRDHAKKTVSLQMNSLKPEDTAVYYCAASRAVTQYSGGGYWGQGTQVTVSS | high polyreactivity |
| QVQLVESGRGLVQAGGSLRLSCAASGFTFSYYAKGWYRQAPGKEREFVAAISWSGGSTYYADSVKGRFTLSRDNAKNTVYLQMNSLKPEDTAVYNSAARSTGGSPGRRFTRGYDYWGQGTQVTVSS | high polyreactivity |
| QVQLVESGRGLVQAGGSLRLSCAASGFTFYYYAMGRYRQAPGKERELVAAISTRDGNTYYADSVKARFTISRDNAKNTVYLQMKSLKTEVTAVYYCAAAYFRYYPYDYWGQGTLVTVSS | low polyreactivity |
| QVQLVESGRGLVQAGGSLRLSCAASGGIFTDYTMGWYRQAPGKERELVAAITWTGGSTYYADSVKGRFTISRDNAKNTFYLQMNSLKPEDSAVYYCAADDYWVNLVYWGQGTQVTVSS | low polyreactivity |
| QVQLVESGRGLVQAGGSLRLSCAASGGTFGWYAMGWYRQAPGKERELVAAISQGGGSTYYADSVKGRFTISRDNAKNTVYLQMNSLKPEDTAVYYCAAYLGRAKGYEYWGQGTQVTVSS | high polyreactivity |
| QVQLVESGRGLVQAGGSLRLSCAASGIIFELYAMGWYRQAPGKEREFVAAINFSDGSTDYADSVKGRFTISRDNAKKTVYLKMNSLKPEDTAVYYCNADSIAYGSIIHGYWGQGTQVTVSS | low polyreactivity |
| QVQLVESGRGLVQAGGSLRLSCAASGIIFKRYAMGWYRQAPGKERELVATINRDGRTSYADSVKGRFTSSRDNAKNTVYLQMHSLKPEDTAVYYCAATYLLERPTSKHPRYDYWGQGTQVTLSS | low polyreactivity |
| QVQLVESGRGLVQAGGSLRLSCAASGITFGDNVMGWYRQAPGKERELVAAISRIGDDTYYADSVKGRFTISRDNAKNTVYLQMNSLKPEDTAVYYCATDYTQRDYYNYGYWGQGTQVTVSS | low polyreactivity |
| QVQLVESGRGLVQAGGSLRLSCAASGITFGYYAMGWSRQEPGKQSELVAAISFNGASTYYADSVKGRFTISRDNAKNTVYLQMNSMKPVDNAVYYCNRSTSYAQYFDVMDYWGQGTQVTVSS | low polyreactivity |

| Sequence | polyreactivity (PSR sort gate) |
| --- | --- |
| QVQLVESGRGLVQAGGSLRLSCAASGNTLLKNAMGWYRQAPGKERELVAAISSSGGRTYYADSVKGRFTISRDNAKNTVYLQMNSLKQEDTAVYYCAARYPSGYYYWGQGTQVTVSS | high polyreactivity |
| QVQLVESGRGLVQAGGSLRLSCAASGRIFSSNAMVWYRQAPGKERELVAAISQGGGSTYYADSVKGRFTISRDNAKITVYLQMNSLIPEDTAVYYCAAETGYSGYDDSAYEYWGQGTQVTVSS | low polyreactivity |
| QVQLVESGRGLVQAGGSLRLSCAASGRILDSNAMGWDRQAPGKESELVAAITWRGGSTYYADSVKGRFTISRDNAKNTVYLQMNSLKPEDTAVYYCNARWSKTAHTRFGYWGQGTQVTVSS | low polyreactivity |
| QVQLVESGRGLVQAGGSLRLSCAASGSIFGFYAMGWYREAPGKESELVAAINSGSTNYADSLKGRFTISRDNAKNTVYLQMNSLKPEDTAVYYCNKDKGVQSYVSSDARYNYWGQGTQVTVSS | low polyreactivity |
| QVQLVESGRGLVQAGGSLRLSCAASGSIFGTNTMGWYRQAPGKERELVAAISWSGGSTYYADSVKGRFTISRDNAKNSVYLHMNSLKPEDTAVYYCNAVYPSVYPVSTRYYWGQGTQVTVSS | high polyreactivity |
| QVQLVESGRGLVQAGGSLRLSCAASGSIFNAYAMGWYRQAPGKERELVADISKRTSYADSVKGRFTISRDNAKNTVYLQMNSLKPEDTADYYCAKEVDEPDGYEYDYWGQGTQVTVSS | low polyreactivity |
| QVQLVESGRGLVQAGGSLRLSCAASGSIFYNNAMGWYRQAPGKERELVAAIRSTGTRTYYADSVKGRFTISRDNAKNTVYLQMNSLKPEDTAVYYCAVGDYGLWSYDCWGQGTQVTVSS | low polyreactivity |
| QVQLVESGRGLVQAGGSLRLSCAASGSILSINGMGWYRQAPGKERELVATIDGSDGSTFYADSVKGRFTISRDNAKNSVYLQMNSQKPEDTAVYYCAAENFWQTKEYDYWGQGTQVTVRS | low polyreactivity |
| QVQLVESGRGLVQAGGSLRLSCAASGSISGGNAMGWYRQAPRKARELVAANDYTDDSTYYADSVKGRFTISRDNAKNTVYLQMNSQKPEDTAVYYCAADAYRAQGDYWGQGTQVTVSS | low polyreactivity |
| QVQLVESGRGLVQAGGSLRLSCAASGSTFNSYAMGWYRQAPGKERELVAAIRWSGSSTYYADSVKGRFTISRDNAKNTVYLQMNSLKAEDTAVYYCSKGYSYGRPWDIYYYWGQGTQVTVSS | low polyreactivity |
| QVQLVESGRGLVQAGGSLRLSCAASGSTFYIYAMGWYRQAPGKERELVAAISTTDGTTYYADSVKGRFTISRDNAKNTVYLQMNSLKPEDTAVYYCAAEWFGSVQPAYDYWGQGTQVTVSS | high polyreactivity |
| QVQLVESGRGLVQAGGSLRLSCAASGYTFGYNAMGWYRQAPGKERELVATNSSGRTTTYADSVKGRFTISRDNAKNNVYLQMNSLKPEDNAGYYCATPVYRSSYEYDYWGQGTQVTVSS | low polyreactivity |
| QVQLVESGRGLVQAGGSLRLSCAPSGRIFKYYAKGWYRQAPGKERELVATITSGANTNYADSVKGRFTISRDNAKNTVYLQMNSLKPEDTAVYYCNADLDPRDYGFDYWGQGTQVTVSS | high polyreactivity |
| QVQLVESGRGLVQAGGSLRLSCAPSGSTFGKYAMGWFRQAPGKERELVAASSSGTSTNYADSVKGRFTISRDNAKNTVYLQMNSRKAEDTSVYYCAADSLKRYDDWGQGTQVTVSS | low polyreactivity |
| QVQLVESGRGLVQAGGSLRLSCAPSGYIFAANAMGWYRQAPGKERELVAAISASGGSTYYADSVKGRFTISRDNAKNTVYLQMNSLKPEDTAVYYCYVVSDSRLYYRYAYDYWGQGTQVTVSS | high polyreactivity |
| QVQLVESGRGLVQAGGSLRLSCDASGSILRENAMGWSRQAPGKERELVAVITRGGNTYYADSVKGRFTISRDNAKYTFYLQMNSMKREDTAVYYCAAKRRERYGQTYGYWGQGTQVTVSS | high polyreactivity |
